T1: C-terminally myc-tagged human WSX-1 (mycHis-WSX-1) (human, UniProt Q6UWB1 33-636)
T1 construct: whole, on cells; in the pull-down and co-immunoprecipitation it stood in cell lysates; also called myc-WSX-1; IL-27 receptor; not shown: C-terminal myc-His tag of the pEF-mycHis vector
T1 sequence (looked up): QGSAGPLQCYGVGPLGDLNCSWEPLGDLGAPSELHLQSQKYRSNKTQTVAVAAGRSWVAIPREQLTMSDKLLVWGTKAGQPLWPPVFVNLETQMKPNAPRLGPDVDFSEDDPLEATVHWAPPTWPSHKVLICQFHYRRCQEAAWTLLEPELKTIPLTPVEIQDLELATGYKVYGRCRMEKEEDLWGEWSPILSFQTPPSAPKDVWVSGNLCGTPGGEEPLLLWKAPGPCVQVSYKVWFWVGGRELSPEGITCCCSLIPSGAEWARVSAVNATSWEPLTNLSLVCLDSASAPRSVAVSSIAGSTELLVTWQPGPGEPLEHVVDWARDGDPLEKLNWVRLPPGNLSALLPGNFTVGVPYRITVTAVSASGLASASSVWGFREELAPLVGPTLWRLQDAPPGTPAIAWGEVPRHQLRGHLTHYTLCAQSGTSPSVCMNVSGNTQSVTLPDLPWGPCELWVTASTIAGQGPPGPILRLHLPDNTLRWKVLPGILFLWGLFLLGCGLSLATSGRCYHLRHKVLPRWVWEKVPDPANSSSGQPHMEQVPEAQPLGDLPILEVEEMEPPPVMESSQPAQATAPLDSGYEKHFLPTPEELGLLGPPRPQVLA

B1: CNTF: ciliary neurotrophic factor, recombinant cytokine (protein, UniProt P26441 1-200, looked up)
Ciliary neurotrophic factor: MAFTEHSPLTPHRRDLCSRSIWLARKIRSDLTALTESYVKHQGLNKNINLDSADGMPVASTDQWSELTEAERLQENLQAYRTFHVLLARLLEDQQVHFTPTEGDFHQAIHTLLLQVAAFAYQIEELMILLEYKIPRNEADGMPINVGDGGLFEKKLWGLKVLQELSQWTVRSIHDLRFISSHQTGIPARGSHYIANNKKM
B2: S14G-Humanin (HNG) (peptide)
peptide: MAPRGFSCLLLLTGEIDLPVKRRA
notes: also called S14G-HN
B3: IL-27: IL-27 (IL-27p28/EBV-induced gene 3), IL-6/IL-12 family cytokine binding to WSX-1/gp130 (protein)
chain 1: FPRPPGRPQLSLQELRREFTVSLHLARKLLSEVRGQAHRFAESHLPGVNLYLLPLGEQLPDVSLTFQAWRRLSDPERLCFISTTLQPFHALLGGLGTQGRWTNMERMQLWAMRLDLRDLQRHLRFQVLAAGFNLPEEEEEEEEEEEEERKGLLPGALGSALQGPAQVSWPQLLSTYRLLHSLELVLSRAVRELLLLSKAGHSVWPLGFPTLSPQP
chain 2: RKGPPAALTLPRVQCRASRYPIAVDCSWTLPPAPNSTSPVSFIATYRLGMAARGHSWPCLQQTPTSTSCTITDVQLFSMAPYVLNVTAVHPWGSSSSFVPFITEHIIKPDPPEGVRLSPLAERQLQVQWEPPGSWPFPEIFSLKYWIRYKRQGAARFHRVGPIEATSFILRAVRPRARYYVQVAAQDLTDYGELSDWSLPATATMSLGK

Legend:
[1] = system: primary cortical neurons (PCNs); experiment: Aβ neurotoxicity in primary cortical neurons, WST-8 / Calcein / LDH; type: cell-based, mouse; conditions: for effect on the HN effect: 10 nM HNG
Protocol: B) PCNs were incubated with 25 μM Aβ (upper) in the presence of 10 μg of recombinant soluble human gp130 (lower “+”) or BSA (lower “−”). Cell viability was determined by WST-8 assay (upper) or Calcein fluorescence assay (lower) at 72 hr after the onset of treatment with Aβ.
C) PCNs were incubated with 25 μM Aβ (1-43) in the presence of 1 μg of neutralizing anti-mouse gp130 antibody (RX435) or control IgG. Cell viability and cell mortality were determined by Calcein fluorescence (left panel) and LDH assays (right panel), respectively, at 72 hr after the onset of treatment with Aβ (1-43).
[…] At 72 hr after incubation, the cells were harvested for WST-8 assays or/and Calcein fluorescence assays to show cell viability.
B) The soluble IL-6 receptor-α (sIL-6R) or the soluble CNTF-R (100 ng/ml) were added to the cells as in the above A), followed by the stimulation with its ligand, IL-6 or CNTF (100 ng/ml), respectively to show the effects on the neuronal cell death due to Aβ. The right and left graphs show the cell viabilities determined by WST-8 assays and Calcein fluorescence assays, respectively.
C) The neutralizing antibodies (1 μg) for the mouse gp130, mouse LIFR, mouse IL-11R and rat CNTF-R were added as in the above A), and cell viability was determined by Calcein fluorescence assays after 72 hours.
WST-8 assay was performed at 72 hrs after the treatment.
The primary culture of mouse cortical neurons was prepared as described previously (Sudo et al., 2000). Briefly, primary cortical neurons, obtained from embryonic day 14 (E14) ICR mice were seeded in poly-L-lysine-coated 96 well plates (Sumitomo Bakelite) at 2.5 or 5.0×10^4 cells/well in Neuron Medium (Sumitomo Bakelite) (Hashimoto et al., 2003; Niikura et al., 2004). Purity of neurons by this method was >98%. After 3 days, the culture medium was replaced with DMEM with N2 supplement. On the fourth day in vitro, 25 μM of Aβ (1-42) was added in association with indicated concentrations of HN or cytokines in the presence or the absence of soluble cytokine receptors or neutralizing antibodies. At 72 hrs after the onset of treatment, cell viability was assessed by WST-8 assay and/or Calcein fluorescence assay and cell mortality was assessed by the Trypan blue exclusion assay and LDH assay (Hashimoto et al, 2000, 2001 a b, 2003).

[2] = system: STAT3; experiment: Immunoblot of phosphotyrosine 705 of STAT3 in F11 cells; type: cell-based; conditions: F11 cells, 15 min
Protocol: E) F11 cells were transfected with an indicated amount of pRNA-U6.1/Shuttle vector (empty), pRNA-U6.1/Shuttle-IL-6R siRNA, or pRNA-U6.1/Shuttle-LIFR siRNA. At 48 hrs after transfection, the cells were treated with 100 ng/ml IL-6, 100 ng/ml CNTF or 1 μM HNG at 37° for 15 min, and harvested. The results of immunoblot analysis using anti-phophoSTAT3 ([…]) antibody and anti-STAT3 antibody were shown in photos. A) F11 cells were added with an indicated amount of HN, HNG or HNA and harvested 15 min later for immunoblot analysis with antibodies recognizing phosphotyrosine 705 of STAT3 or STAT3. The results are shown in photos. B) F11 cells were transfected with 0.5 μg of pRNA-U1.6/Shuttle vector, pRNA-U6.1/Shuttle-WSX-1 siRNA, pRNA-U6.1/Shuttle-CNTF-R siRNA, both pRNA-U6.1/Shuttle-WSX-1 siRNA and pRNA-U6.1/Shuttle-CNTF-R siRNA (0.5 μg each), or pRNA-U6.1/Shuttle-FPR2 siRNA. The total amount of vectors was adjusted to be 1.0 μg by including a backbone vector. […] The results are shown in photos. Cell lysates (10-20 μg/lane) or pulled-down precipitates were subject to SDS-PAGE, and the proteins separated on the gel were transferred onto polyvinylidene difluoride membranes as described (Hashimoto et al, 2000). Visualization of the immunoreactive protein bands was performed by ECL (Amersham Pharmacia Biotech, Uppsala, Sweden).

[3] = biological target: T1, C-terminally myc-tagged human WSX-1 …; experiment: cold competitor (10 µM) in binding assay (1), F11 cells expressing human WSX-1 and gp130
Protocol: B) F11 cells were transfected with 0.5 µg of pEF-myc His human CREME9 or pEF-mycHis human WSX-1 in association with 0.5 µg of pCAG-human gp130. […] Fluorescence signals were detected with a laser-scanning, confocal microscope LSM (Carl Zeiss, Germany) (right panels).
(§1) F11 cells (7×10^4/well in 6-well plates) were replated into 96-well plates (7×10^3 cells/well) at 24 hrs after transfection with indicated amounts of the plasmids encoding mycHis-WSX or V5-CNTF-R, and with PCAG-human gp130 if required. […] After 6 hrs incubation, they were fixed with 4% paraformaldehyde in PBS for 30 min. After washing with PBS, cells were stained with FITC-conjugated avidin (Molecularprobe, Eugene, Oreg., USA). Immunofluorescence intensity was measured (excitation=485 nm, emission=535 nm) with a spectrofluorometer (Wallac1420 ARVOsx Multi Label Counter). Immunohistochemical analysis was done with a laser-scanning, confocal microscope LSM (Carl Zeiss, Germany).

[4] = biological target: T2, Humanin receptor (HNR) overexpressed in F11 cells: human CNTF-R/WSX-1/gp130 (human, UniProt P26992 23-342; Q6UWB1 33-636; P40189 23-918); experiment: cold competitor in binding assay (2), F11 cells transfected with human CNTF-R/WSX-1/gp130
T2 construct: whole, on cells; The three human subunits co-transfected into F11 cells, which also carry the endogenous receptor; also called both the CNTF receptor and WSX-1; not shown: C-terminal V5 tag; C-terminal myc-His tag
T2 sequence (P26992 23-342, chain 1 of 2): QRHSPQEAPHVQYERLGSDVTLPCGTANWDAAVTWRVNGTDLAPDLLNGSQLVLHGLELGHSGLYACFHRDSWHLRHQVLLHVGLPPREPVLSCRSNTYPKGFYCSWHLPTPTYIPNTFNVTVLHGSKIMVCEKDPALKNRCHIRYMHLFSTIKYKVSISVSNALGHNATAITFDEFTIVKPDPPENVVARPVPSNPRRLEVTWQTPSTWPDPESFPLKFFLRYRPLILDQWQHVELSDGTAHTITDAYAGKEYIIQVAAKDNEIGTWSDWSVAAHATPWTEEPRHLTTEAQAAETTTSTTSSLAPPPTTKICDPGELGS
T2 sequence (P40189 23-918, chain 3 of 2): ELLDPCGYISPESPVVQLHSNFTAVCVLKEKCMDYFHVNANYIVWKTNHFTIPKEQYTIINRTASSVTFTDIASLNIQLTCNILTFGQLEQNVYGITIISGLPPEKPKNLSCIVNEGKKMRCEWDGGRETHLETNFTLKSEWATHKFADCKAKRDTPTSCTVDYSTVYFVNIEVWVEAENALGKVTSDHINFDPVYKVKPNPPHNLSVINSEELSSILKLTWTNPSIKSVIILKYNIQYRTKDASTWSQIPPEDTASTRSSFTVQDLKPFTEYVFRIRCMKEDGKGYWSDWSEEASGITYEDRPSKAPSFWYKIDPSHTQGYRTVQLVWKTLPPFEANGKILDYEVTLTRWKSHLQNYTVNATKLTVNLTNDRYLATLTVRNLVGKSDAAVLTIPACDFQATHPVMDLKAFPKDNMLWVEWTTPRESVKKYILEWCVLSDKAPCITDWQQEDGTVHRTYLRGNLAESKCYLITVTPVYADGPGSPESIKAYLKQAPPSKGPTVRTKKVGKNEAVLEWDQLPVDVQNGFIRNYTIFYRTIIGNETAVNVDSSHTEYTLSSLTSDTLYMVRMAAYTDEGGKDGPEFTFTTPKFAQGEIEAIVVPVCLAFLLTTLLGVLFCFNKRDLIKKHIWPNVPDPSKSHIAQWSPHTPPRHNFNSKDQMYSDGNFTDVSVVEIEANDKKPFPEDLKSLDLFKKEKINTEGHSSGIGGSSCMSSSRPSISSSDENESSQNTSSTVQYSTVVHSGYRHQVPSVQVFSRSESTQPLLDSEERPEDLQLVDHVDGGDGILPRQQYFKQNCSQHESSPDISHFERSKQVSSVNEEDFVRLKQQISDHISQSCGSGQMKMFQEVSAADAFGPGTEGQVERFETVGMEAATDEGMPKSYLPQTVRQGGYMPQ
Protocol: A) F11 cells were seeded on 96-well plates coated with poly-L-lysine (7 ×10^3 cells/well). […] On the other hand, F11 cells were transfected with 0.5 μg of pcDNA3.1/GS-human CNTF-R, pEF1/MycHis-human WSX-1, and 1.0 μg of pCAG-human gp130. At 24 hrs after the transfection, the cells were re-seeded on 96-well plates coated with poly-L-lysine (7 ×10^3 cells/well).
as §1

[5] = system: F11 cells; experiment: Neuronal cell death of F11 cells induced by overexpression of FAD genes (V642I-APP, M146L-PS1), WST-8 / Trypan blue; type: cell-based
Protocol: D) F11 cells were transfected with 0.5 μg of the pcDNA3 vector or pcDNA3-V642I-APP in association with 0.5 μg of the pEFBos vector or pEFBos-wild-type human gp130 (gp130wt). At 24 hr after transfection, the cells were added with 1 μg of neutralizing anti-mouse gp130 antibody. Cell mortality (left panel) and cell viability (right panel) were determined by Trypan blue exclusion assay and WST-8 assay at 72 hr after transfection. Below are shown the results of the expression of V642I-APP, and human gp130wt, which were confirmed by immunoblot analysis (photos).
B) F11 cells were transfected with 0.5 μg of the pcDNA3 vector or pcDNA3-V642I-APP in association with pRNA-U6.1/Shuttle vector (NO), pRNA-U6.1/Shuttle-siWSX-1 (W), pRNA-U6.1/Shuttle-siCNTF-R (C), or pRNA-U6.1/Shuttle-siFPR-2 (F) (Hashimoto et al. 2005). At 24 hrs after transfection, the cells were added with or without 10 nM of HNG. At 72 hrs after transfection, the cells were harvested for WST-8 assays. […]
F11 cells were transfected with pcDNA3 vector or pcDNA3-V642I-APP. […] The expression of V642I-APP determined by immunoblot analysis was shown below in a photo. […]
The transfection procedures were as described (Hashimoto et al, 2000, 2001a, 2003). […] Transfection efficiency in these protocols has been determined to be invariably around 70%. […]

Row | binding result [3] | binding result [4] | Molecule | effect on the HN effect ([1]; PCN, 10 μM Aβ (1-43)) | mimicry of HN in neuroprotection against neuronal cell death by Aβ ([1]; cytokine 100 ng/ml with its soluble receptor (sIL-6R or soluble CNTF receptor) 100 ng/ml) | inhibition of neurotoxicity by Aβ ([1]; cytokine alone, physiological levels (up to 100 ng/ml), 25 μM Aβ) | phosphorylation of tyrosine 705 of STAT3 [2] | concentration range showing HN-like effect (activity) ([5]; WST-8) | concentration range suppressing the HN effect ([5]; given with HNG) | HN-like effect ([1]; PCN, higher concentration range, 10 μM Aβ (1-43))
1 | – | – | B1 | inhibited the HN effect | did not mimic HN | did not inhibit | increased | – | – | –
2 | binds | binds | B2 | – | – | – | – | – | – | –
3 | – | – | B3 | suppressed the HN effect | – | – | increased | 1 to 10 µM | ≤ 100 nM | had the HN-like effect
